The target of the assay is 41F17. As to the kind of experiment: SPR; avidity. On the technique in general: SPR reads the build-up and loss of mass on a sensor chip optically.

B1: BKPyV VLP genotype Ia (VP1 virus-like particles) (complex)
chain: MAPTKRKGECPGAAPKKPKEPVQVPKLLIKGGVEVLEVKTGVDAITEVECFLNPEMGDPDENLRGFSLKLSAENDFSSDSPERKMLPCYSTARIPLPNLNEDLTCGNLLMWEAVTVQTEVIGITSMLNLHAGSQKVHEHGGGKPIQGSNFHFFAVGGEPLEMQGVLMNYRSKYPDGTITPKNPTAQSQVMNTDHKAYLDKNNAYPVECWVPDPSRNENARYFGTFTGGENVPPVLHVTNTATTVLLDEQGVGPLCKADSLYVSAADICGLFTNSSGTQQWRGLARYFKIRLRKRSVKNPYPISFLLSDLINRRTQRVDGQPMYGMESQVEEVRVFDGTERLPGDPDMIRYIDKQGQLQTKML
B1 displayed a Kd of 0.34 nM.

These data come from article PMC9887757 (2023).
